Test [1] concerns the target MBP-tagged Vif–CBFβ–EloB–EloC complex (wild type) (HIV-1 (pNL4–3) | human | , UniProt P12504;Q13951-2;Q15370;Q15369). In words: pull-down.
For test [2], the target named is MBP-tagged Vif–CBFβ–EloB–EloC complex with CBFβ E54K (HIV-1 (pNL4–3) | human | , UniProt P12504;Q13951-2;Q15370;Q15369, E54K). In words: pull-down.
Test [3] addresses truncated Vif–CBFβ subcomplex (Vif176Δ114–157 with CBFβ151) (HIV-1 (pNL4–3) | human, UniProt P12504;Q13951). Description: SEC. Background: Size exclusion chromatography separates by hydrodynamic size, large species first.

B1: A3F_(CTDm) D260R/D261R (domain or fragment)
chain: KEILRNPMEAMDPHIFYFHFKNLRKAYGRNESWLCFTMEVVKHHSPVSWKRGVFRNQVDPETGRHAERCFLSWFCRRILSPNTNYEVTWYTSWSPCPECAGEVAEFLARHSNVNLTIKTARLYYFKDTDAAEGLRSLSQEGASVEIMGYKDFKYCWENFVYNDDEPFKPWDGLDYNFLDLDSKLQEILE
As to B1, the binding result in test [1] is listed as “binds”.

B2: A3F_(CTDm) R293D (domain or fragment)
chain: KEILRNPMEAMDPHIFYFHFKNLRKAYGRNESWLCFTMEVVKHHSPVSWKRGVFRNQVDPETGRHAERCFLSWFCDDILSPNTNYEVTWYTSWSPCPECAGEVAEFLADHSNVNLTIKTARLYYFKDTDAAEGLRSLSQEGASVEIMGYKDFKYCWENFVYNDDEPFKPWDGLDYNFLDLDSKLQEILE
In the case of B2, the binding result in test [2] is listed as “binds”.

B3: A3F_(CTDm) P265A (domain or fragment)
chain: KEILRNPMEAMDPHIFYFHFKNLRKAYGRNESWLCFTMEVVKHHSPVSWKRGVFRNQVDPETGRHAERCFLSWFCDDILSANTNYEVTWYTSWSPCPECAGEVAEFLARHSNVNLTIKTARLYYFKDTDAAEGLRSLSQEGASVEIMGYKDFKYCWENFVYNDDEPFKPWDGLDYNFLDLDSKLQEILE
Turning to B3, the binding result in test [1] is “binds”.

B4: A3F_(CTDm) D347R (domain or fragment)
chain: KEILRNPMEAMDPHIFYFHFKNLRKAYGRNESWLCFTMEVVKHHSPVSWKRGVFRNQVDPETGRHAERCFLSWFCDDILSPNTNYEVTWYTSWSPCPECAGEVAEFLARHSNVNLTIKTARLYYFKDTDAAEGLRSLSQEGASVEIMGYKDFKYCWENFVYNRDEPFKPWDGLDYNFLDLDSKLQEILE
Regarding B4, the binding result in test [1] and in test [3] was “binds” each time.

These data come from paper PMC6899190 (Nature structural & molecular biology, 2019).
